Ends that are not written are not given here. * marks the point of attachment. Biotin = O=C1N[C@H]2[C@H](CS[C@H]2CCCCC(=O)*)N1
Experiments:
Assay type in all cases: binding
[1] = target: T1, PSD-95 (Homo sapiens, UniProt P78352); assay: G assay competition of short unlabeled peptides with biotinylated 20-mers (Example 6, TABLE 6); conditions: for % binding: 100 = no competitor
T1 construct: protein spans from amino terminal end of first PDZ domain to carboxy-terminal end of third PDZ domain in frame with GST in vector; made in house; host or cells: E. coli DH5alpha
Source text: (§1) The potential for unlabeled 8-mers and 3-mers to compete for binding with biotinylated 20-mers to PDZ domains was examined. Interactions between a PDZ domain and two or more biotinylated peptides mimicking PDZ ligands identified through the ‘G Assay’ were used as model interactions. Short, 3 or 8 amino acid, unlabeled peptides were synthesized by standard techniques and used at variable concentrations with a set concentration of biotinylated 20-mer. Ability of both the 3-mer and 8-mer to inhibit longer peptide binding was observed, making PDZ:PL interactions an attractive target for design of small molecule or peptide therapeutics.
(§2) Peptides representing the C-terminal 3, 8 or 20 amino acids of a PDZ ligand were synthesized by standard FMOC chemistry and biotinylated if not used as an unlabeled competitor. Peptides three amino acids in length were acetylated to more properly mimic the peptide bond without introducing an amino-terminal charged group. Peptides were purified by reverse phase high performance liquid chromatography (HPLC) using a Vydac 218TP C18 Reversed Phase column having the dimensions of 10*25 mm, 5 um. Approximately 40 mg of peptide was dissolved in 2.0 ml of and aqueous solution of 49.9% acetonitrile and 0.1% Tri-Fluoro acetic acid (TFA). This solution was then injected into the HPLC machine through a […] syringe filter (Millipore). Buffers used to get a good separation are (A) distilled water with 0.1% TFA and (B) 0.1% TFA with Acetonitrile.
(§3) The G Assay was performed as described in EXAMPLE 3 with the exception that when a short competitor was used, 30 ul of competitor peptide (at twice the final concentration) was mixed with 30 ul biotinylated 20-mer (at twice the final concentration) and then added to the well.
(§4) PSD-95 and DLG-1 were incubated in the wells at 5 ug/ml as described in the G Assay protocol. Biotinylated 20-mer peptides used were 20 uM CLASP-2, 20 uM CD46, 10 uM CD95, and 10 uM KV1.3 (find sequences of peptides in TABLE 8). Competitors (unlabeled, short peptides) tested against each of the biotinylated peptides were 50 uM 8-mer of CD95, 100 uM 8-mer of CD46, 50 uM 8-mer of CLASP-2, and 1 mM and 500 uM acetylated 3-mer of CLASP-2. To deduce sequences, refer to TABLE 8. All absorbances were read at 450 nm after stopping TMB detection reaction at 30 min. Results were normalized in each group by dividing its A450 by the A450 of the PDZ/peptide binding in the absence of competitor and converting to percentage by multiplying by 100.

[2] = target: T2, DLG-1 (Homo sapiens, UniProt Q12959); assay: as above; conditions: 100 = no competitor
T2 construct: protein spans from amino terminal end of first PDZ domain to carboxy-terminal end of third PDZ domain in frame with GST in vector; made in house; host or cells: E. coli DH5alpha
Source text: as §1, §2, §3, §4

[3] = target: T3, PDZ protein (GST-PDZ fusion) (Homo sapiens, UniProt Q6P0Q8); assay: G' assay (10 uM PL peptide), results of TABLE 7 and TABLE 12
T3 construct: made in house; host or cells: E. coli (DH5alpha, BL21 or JM109)
Source text: (§5) Each page of TABLE 7 and 12 includes seven columns. The columns in each table are numbered from left to right such that the left-most column in each table is column 1 and the right-most column in each table is column 7. Thus, the first column in each table is labeled “AVC ID”; this column simply lists an internal reference number used to refer to the carboxyl-terminal amino acids of the PL proteins listed in the second column. […] All PL peptides were biotinylated at the amino-terminus and the sequences of these PL peptides are presented in TABLE 8 (see end of specification).
(§6) This column provides the gene name for the PDZ portion of the GST-PDZ fusion that interacts with the PDZ-ligand to the left. For PDZ domain-containing proteins with multiple domains, the domain number is listed to the right of the PDZ (i.e., in column 5 labeled “PDZ Domain”), and indicates the PDZ domain number when numbered from the amino-terminus to the carboxy-terminus.
(§7) The third column labeled “Peptide Optimal Concentration” in the tables is a number reflective of the binding interaction between the PL protein and PDZ protein. […] The column labeled “Protein Optimal Concentration” refers to the protein concentration used to assay PL interaction (in ug/ml); a ‘0’ is indicative of 5 ug/ml protein concentration; any other value represents the concentration (in ug/ml) used to determine the dissociation constant for a given interaction.
(§8) Finally, the seventh column labeled “Classification” is another measure of the level of binding. In particular, it provides an absorbance value at 450 nm which indicates the amount of PL peptide bound to the PDZ protein. The following numerical values have the following meanings: ‘1’—A450 nm 0-1; ‘2’—A450 nm 1-2; ‘3’—A450 nm 2-3; ‘4’—A450 nm 3-4; ‘5’—A450 nm of 4 more than 2× repeated; ‘0’—A450 nm 0, i.e., not found to interact. Thus, higher numbers indicate stronger interactions.
(§9) For convenience, the assay conditions described in this section are referred to as the “G′ assay” and the “G″ assay,” with the specific conditions described in the preceding section on G assays being referred to as the “G^0 assay.” The “G′ assay” is identical to the “G^0 assay” except at step (2) the peptide concentration is 10 uM instead of 20 uM.

[4] = target: T4, PDZ protein (GST-PDZ fusion) (Homo sapiens, UniProt Q13796); assay: as above; conditions: PDZ hAPXL, PDZ Domain 1
T4 construct: made in house; host or cells: E. coli (DH5alpha, BL21 or JM109)
Source text: as §5, §6, §7, §8, §9

[5] = target: T5, PDZ protein (GST-PDZ fusion) (Homo sapiens, UniProt O15018); assay: as above; conditions: PDZ AIPC, PDZ Domain 1
T5 construct: made in house; host or cells: E. coli (DH5alpha, BL21 or JM109)
Source text: as §5, §6, §7, §8, §9

[6] = test system: PDZ protein (GST-PDZ fusion); assay: as above; conditions: PDZ SHANK, PDZ Domain 1
Source text: as §5, §6, §7, §8, §9

[7] = target: T6, PDZ protein (GST-PDZ fusion) (Homo sapiens, UniProt Q9NZN5); assay: as above; conditions: PDZ KIAA0382, PDZ Domain 1
T6 construct: made in house; host or cells: E. coli (DH5alpha, BL21 or JM109)
Source text: as §5, §6, §7, §8, §9

[8] = target: T7, PDZ protein (GST-PDZ fusion) (Homo sapiens, UniProt O14907); assay: as above; conditions: PDZ TIP1, PDZ Domain 1
T7 construct: made in house; host or cells: E. coli (DH5alpha, BL21 or JM109)
T7 sequence (O14907 1-124): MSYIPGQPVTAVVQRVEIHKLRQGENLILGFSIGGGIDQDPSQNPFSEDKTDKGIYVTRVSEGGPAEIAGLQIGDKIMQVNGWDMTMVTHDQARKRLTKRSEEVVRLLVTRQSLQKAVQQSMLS
Source text: as §5, §6, §7, §8, §9

[9] = biotinylated 20-mer CD46 20 uM, competitor 500 uM
[10] = biotinylated 20-mer CD46 20 uM, competitor 1000 uM
[11] = biotinylated 20-mer CD95 10 uM, competitor 500 uM
[12] = biotinylated 20-mer CD95 10 uM, competitor 1000 uM
[13] = biotinylated 20-mer CLASP-2 20 uM, competitor 500 uM
[14] = biotinylated 20-mer CLASP-2 20 uM, competitor 1000 uM
[15] = biotinylated 20-mer CD46 20 uM, competitor 100 uM
[16] = biotinylated 20-mer CD95 10 uM, competitor 100 uM
[17] = biotinylated 20-mer CLASP-2 20 uM, competitor 100 uM
[18] = biotinylated 20-mer KV1.3 10 uM, competitor 100 uM

T2 sequence (Q12959 224-546 limits assumed): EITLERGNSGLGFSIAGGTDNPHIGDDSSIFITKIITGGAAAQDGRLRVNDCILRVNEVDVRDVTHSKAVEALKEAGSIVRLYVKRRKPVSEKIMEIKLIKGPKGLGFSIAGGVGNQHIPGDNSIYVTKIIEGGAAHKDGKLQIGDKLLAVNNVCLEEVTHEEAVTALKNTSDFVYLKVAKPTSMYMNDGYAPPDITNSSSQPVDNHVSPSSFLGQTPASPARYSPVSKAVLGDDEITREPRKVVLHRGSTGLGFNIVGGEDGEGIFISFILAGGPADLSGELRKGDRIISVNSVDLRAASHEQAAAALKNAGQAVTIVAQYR
T1 sequence (P78352 58-398 limits assumed): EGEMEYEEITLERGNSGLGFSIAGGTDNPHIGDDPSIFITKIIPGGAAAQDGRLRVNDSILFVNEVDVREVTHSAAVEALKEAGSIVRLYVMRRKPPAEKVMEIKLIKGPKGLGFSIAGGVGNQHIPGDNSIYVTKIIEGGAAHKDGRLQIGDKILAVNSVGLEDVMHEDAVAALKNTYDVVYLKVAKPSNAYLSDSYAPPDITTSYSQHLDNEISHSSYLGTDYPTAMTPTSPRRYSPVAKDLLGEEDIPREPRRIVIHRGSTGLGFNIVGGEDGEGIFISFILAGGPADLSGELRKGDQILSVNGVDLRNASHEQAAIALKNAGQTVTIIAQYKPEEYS
T3 sequence (Q6P0Q8 whole entry, the tested form may be a part): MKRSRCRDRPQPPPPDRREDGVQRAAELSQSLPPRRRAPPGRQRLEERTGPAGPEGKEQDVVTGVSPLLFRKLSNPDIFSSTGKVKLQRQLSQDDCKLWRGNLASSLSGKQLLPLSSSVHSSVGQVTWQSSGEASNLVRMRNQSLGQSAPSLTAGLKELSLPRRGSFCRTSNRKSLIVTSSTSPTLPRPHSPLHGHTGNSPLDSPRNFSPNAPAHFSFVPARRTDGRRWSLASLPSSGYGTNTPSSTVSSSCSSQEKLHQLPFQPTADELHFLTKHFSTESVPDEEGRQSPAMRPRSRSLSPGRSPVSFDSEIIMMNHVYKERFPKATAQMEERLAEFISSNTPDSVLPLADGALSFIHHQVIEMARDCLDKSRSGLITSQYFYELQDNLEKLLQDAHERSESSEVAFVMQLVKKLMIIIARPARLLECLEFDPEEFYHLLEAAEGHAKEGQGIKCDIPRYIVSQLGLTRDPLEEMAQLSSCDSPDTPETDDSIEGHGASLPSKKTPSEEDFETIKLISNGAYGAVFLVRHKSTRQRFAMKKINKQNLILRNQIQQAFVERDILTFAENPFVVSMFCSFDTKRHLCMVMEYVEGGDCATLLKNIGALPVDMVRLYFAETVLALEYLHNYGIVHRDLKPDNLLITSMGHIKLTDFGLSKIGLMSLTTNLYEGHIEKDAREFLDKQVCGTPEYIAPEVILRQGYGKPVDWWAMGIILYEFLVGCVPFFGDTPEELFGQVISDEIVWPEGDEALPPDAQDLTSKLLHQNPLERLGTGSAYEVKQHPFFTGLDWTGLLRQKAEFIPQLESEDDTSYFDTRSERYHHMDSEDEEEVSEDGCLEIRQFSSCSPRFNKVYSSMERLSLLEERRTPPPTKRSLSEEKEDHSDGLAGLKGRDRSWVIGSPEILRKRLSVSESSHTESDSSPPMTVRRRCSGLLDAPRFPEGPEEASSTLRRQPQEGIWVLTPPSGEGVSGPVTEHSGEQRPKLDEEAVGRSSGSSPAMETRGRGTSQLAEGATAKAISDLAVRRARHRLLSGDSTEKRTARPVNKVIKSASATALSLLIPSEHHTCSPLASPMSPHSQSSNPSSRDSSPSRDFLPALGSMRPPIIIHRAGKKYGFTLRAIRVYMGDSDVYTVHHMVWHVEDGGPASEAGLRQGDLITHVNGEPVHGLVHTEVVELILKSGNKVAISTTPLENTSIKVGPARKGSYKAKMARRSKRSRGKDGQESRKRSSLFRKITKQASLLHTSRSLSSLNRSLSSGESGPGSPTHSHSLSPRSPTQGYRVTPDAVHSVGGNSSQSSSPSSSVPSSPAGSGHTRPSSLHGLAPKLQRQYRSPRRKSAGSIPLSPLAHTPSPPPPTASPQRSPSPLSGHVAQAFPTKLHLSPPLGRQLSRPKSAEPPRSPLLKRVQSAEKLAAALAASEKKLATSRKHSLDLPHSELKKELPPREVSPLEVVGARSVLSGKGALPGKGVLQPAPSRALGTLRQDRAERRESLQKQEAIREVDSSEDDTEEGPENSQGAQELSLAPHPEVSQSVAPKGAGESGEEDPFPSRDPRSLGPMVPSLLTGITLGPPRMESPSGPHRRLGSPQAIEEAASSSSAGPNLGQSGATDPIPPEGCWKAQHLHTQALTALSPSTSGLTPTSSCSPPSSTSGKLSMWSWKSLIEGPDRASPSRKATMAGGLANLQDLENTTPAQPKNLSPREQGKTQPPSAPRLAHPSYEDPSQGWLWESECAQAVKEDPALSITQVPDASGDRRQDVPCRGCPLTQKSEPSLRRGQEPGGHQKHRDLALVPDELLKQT
T4 sequence (Q13796 whole entry, the tested form may be a part): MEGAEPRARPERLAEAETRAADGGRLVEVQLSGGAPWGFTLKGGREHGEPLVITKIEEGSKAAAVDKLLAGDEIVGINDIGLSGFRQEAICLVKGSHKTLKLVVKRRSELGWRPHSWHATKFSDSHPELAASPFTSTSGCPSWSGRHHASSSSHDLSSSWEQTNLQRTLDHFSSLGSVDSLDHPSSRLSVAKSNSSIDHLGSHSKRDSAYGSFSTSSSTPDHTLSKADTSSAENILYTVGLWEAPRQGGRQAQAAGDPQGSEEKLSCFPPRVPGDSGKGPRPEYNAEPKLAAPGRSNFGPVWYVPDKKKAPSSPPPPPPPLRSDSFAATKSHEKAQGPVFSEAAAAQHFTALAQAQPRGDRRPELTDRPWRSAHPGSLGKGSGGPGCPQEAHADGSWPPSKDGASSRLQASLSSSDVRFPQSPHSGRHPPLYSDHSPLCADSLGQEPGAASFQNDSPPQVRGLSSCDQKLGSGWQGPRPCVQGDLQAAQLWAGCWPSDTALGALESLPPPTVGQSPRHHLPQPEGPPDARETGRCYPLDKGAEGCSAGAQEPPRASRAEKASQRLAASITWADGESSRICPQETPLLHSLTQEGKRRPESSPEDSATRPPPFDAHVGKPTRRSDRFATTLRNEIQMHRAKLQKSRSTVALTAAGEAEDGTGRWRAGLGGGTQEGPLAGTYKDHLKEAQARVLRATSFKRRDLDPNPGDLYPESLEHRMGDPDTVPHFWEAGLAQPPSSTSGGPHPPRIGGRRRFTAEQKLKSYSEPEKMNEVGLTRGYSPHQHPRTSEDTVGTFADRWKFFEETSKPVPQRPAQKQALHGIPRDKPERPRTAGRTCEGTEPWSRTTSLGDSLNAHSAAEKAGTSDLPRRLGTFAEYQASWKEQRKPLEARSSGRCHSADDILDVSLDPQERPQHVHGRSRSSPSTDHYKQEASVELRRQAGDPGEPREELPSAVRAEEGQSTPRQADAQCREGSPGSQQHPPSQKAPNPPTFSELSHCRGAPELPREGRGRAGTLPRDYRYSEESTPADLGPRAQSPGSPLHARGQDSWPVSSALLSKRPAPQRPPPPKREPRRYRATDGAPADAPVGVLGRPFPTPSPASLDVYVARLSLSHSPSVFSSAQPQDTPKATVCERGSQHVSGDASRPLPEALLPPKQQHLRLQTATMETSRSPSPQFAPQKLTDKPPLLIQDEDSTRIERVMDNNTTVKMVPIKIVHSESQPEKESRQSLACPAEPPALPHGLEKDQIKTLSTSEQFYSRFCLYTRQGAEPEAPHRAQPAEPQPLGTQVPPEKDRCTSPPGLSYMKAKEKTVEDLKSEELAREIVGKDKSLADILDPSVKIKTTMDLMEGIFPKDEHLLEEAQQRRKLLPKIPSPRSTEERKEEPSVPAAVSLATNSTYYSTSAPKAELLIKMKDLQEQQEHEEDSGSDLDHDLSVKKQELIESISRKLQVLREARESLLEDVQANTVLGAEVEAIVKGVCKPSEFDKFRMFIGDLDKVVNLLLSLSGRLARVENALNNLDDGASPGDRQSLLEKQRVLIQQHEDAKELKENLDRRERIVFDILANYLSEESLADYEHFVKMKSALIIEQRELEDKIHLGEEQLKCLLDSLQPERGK

Substance: SVV [CLASP-2 3-mer, acetylated peptide of the C-terminal 3 amino acids of CLASP-2]
- % binding [1, 9]: 75%
- % binding [1, 10]: 59%
- % binding [1, 11]: 55%
- % binding [1, 12]: 55%
- % binding [1, 13]: 82%
- % binding [1, 14]: 63%
- % binding ([1]; biotinylated 20-mer KV1.3 10 uM, competitor 500 uM): 81%
- % binding ([1]; biotinylated 20-mer KV1.3 10 uM, competitor 1000 uM): 50%
- reduction of labeled ligand binding ([1]; competitor 1 mM, 50-100-fold excess, summary of TABLE 6, PDZ not given): up to 50%
- % binding [2, 9]: 72%
- % binding [2, 10]: 45%
- % binding [2, 11]: 51%
- % binding [2, 12]: 46%
- % binding [2, 13]: 61%
- % binding [2, 14]: 59%

Substance: ACM3_HUMAN (Biotin-QQYQQRQSVIFHKRAPEQAL)
- Classification ([3]; PDZ KIAA807): 1 (A450 nm 0-1)
- Classification ([3]; PDZ KIAA0807(S), PDZ Domain 1): 1 (A450 nm 0-1)
- Classification [4]: 1 (A450 nm 0-1)
- Classification [5]: 1 (A450 nm 0-1)

Substance: KDSRPSFVGSSSGHTSTTL (Biotin-KDSRPSFVGSSSGHTSTTL) [CDw128B]
- Classification ([3]; PDZ KIAA807): 5 (A450 nm of 4 more than 2× repeated)
- Classification ([3]; PDZ KIAA0807(S), PDZ Domain 1): 5 (A450 nm of 4 more than 2× repeated)
- Classification [6]: 3 (A450 nm 2-3)
- Classification [7]: 2 (A450 nm 1-2)

Substance: REVKFTSL [CD46 8-mer, unlabeled peptide of the C-terminal 8 amino acids of CD46]
- % binding [1, 15]: 95%
- % binding [1, 16]: 65%
- % binding [1, 17]: 81%
- % binding [1, 18]: 71%
- % binding [2, 15]: 90%
- % binding [2, 16]: 68%
- % binding [2, 17]: 90%
- % binding [2, 18]: 63%

Substance: GPDGIITVNDFTQNPRVQLE (Biotin-GPDGIITVNDFTQNPRVQLE) [ropporin]
- Classification [8]: 1 (A450 nm 0-1)
